Experiment: yeast display, Sf9 membrane polyspecificity reagent, FACS + sequencing; frameworks hold sequencing errors
How it was run: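 Nanobodies from a synthetic yeast display library (Saccharomyces cerevisiae BJ5465), induced 36–48 hours with galactose, were stained 1 hour at 4 °C with 10% biotinylated, detergent-solubilized Sf9 membrane reagent, enriched on streptavidin microbeads, then FACS-sorted. Anti-HA (expression) and streptavidin (reagent binding) fluorescence set low and high (top ~1%) gates. Polyreactivity labels come from the gate of origin. Genes were colony-PCR amplified, MiSeq 2 × 250 sequenced and filtered by CDR length.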

| Sequence | polyreactivity (PSR sort gate) |
| --- | --- |
| QVQLVESGGGLVQAGGSLRLSCAASGRIFHSYTIGWYRPAPGNERELVAAINWSGTRTYYADSVKGRFTISRDNAKNTVYLQMNSLKPEDTAVYYCNRVGVTRSYRYDYWGQGTQVTVSS | high polyreactivity |
| QVQLVESGGGLVQAGGSLRLSCAASGRIFHTYAMGWYRQAPGKEREFVAAIRWSGGSTYYADSVKGRFTISRDNAKNTVYLQMNSLKPEDTAVYYCAREQVRYYSWFGYWGQGTQVTVSS | high polyreactivity |
| QVQLVESGGGLVQAGGSLRLSCAASGRIFHVNAMGWYRQAPGKERELVAAISTSGGRTYYADSVKGRFTISRDNAKNTVYLQMNSLKPEDTAVYYCAASLGGYGERYYYWGQGTQVTVSS | high polyreactivity |
| QVQLVESGGGLVQAGGSLRLSCAASGRIFHYNAMGSYRQAPVKERELVAAISTGGSTNYADSVKGRFTISRDNAKNTVYLQMNSLKPEDTAVYYCAAGPDPLGEDYWGQGTQVTVSS | low polyreactivity |
| QVQLVESGGGLVQAGGSLRLSCAASGRIFHYNAMGWYRQAPRKERELVAAISTGGSTNYADSVKGRFTISRDNAKNTVYLQMNSLKPEDTAVYYCAADHPVTYPTSKFDYWGQGTQVTVSS | low polyreactivity |
| QVQLVESGGGLVQAGGSLRLSCAASGRIFHYNDMGWYRQAPWKERELVAAISTGGSTNYADSVKGRFTISRDNAKNTVYLQMNSLKPEDTAVYYCAADHPGTYPTTKFDYWGQGTQVTVSS | low polyreactivity |
| QVQLVESGGGLVQAGGSLRLSCAASGRIFIAYMGWYRQAPGKERELVAAIDSGASTYYADSVKGRFTISRDNAKNTVYLQMNSLKPEDTAVYYCAADVVYDYGGMDYWGQGTQVTVSS | low polyreactivity |
| QVQLVESGGGLVQAGGSLRLSCAASGRIFIKNAMGWYRQAPGKERELVAAISSGSSTYYADSVKGRFTISRDNAKNTVYLQMNSLKPEDTAVYLYGSWGQGTQVTVSS | low polyreactivity |
| QVQLVESGGGLVQAGGSLRLSCAASGRIFILNTMGWYRQAPGKERELVAGISYSGSTYYADSVKGRFTISRDNAKNTVYSQMNSLKPVDTAVYYCAADYDAAWYNDGYYYWGQGTQVTVSS | low polyreactivity |
| QVQLVESGGGLVQAGGSLRLSCAASGRIFILYAMGWYRQAPGKERELVATITKSGGNTYYADSVKGRFTISRDNAKNTVYLQMNSLKPEDTAVYYCAAQGRDSTPHGYWGQGTQVTVSS | high polyreactivity |
| QVQLVESGGGLVQAGGSLRLSCAASGRIFINDMGWYRQAPGKERELVAAIRSDGSTNYADSVKGRFTISRDNAKNTVYLQMNSLKPEDTAVYYCNVDGYFLFVRGYEYWGQGTQVTVSS | low polyreactivity |
| QVQLVESGGGLVQAGGSLRLSCAASGRIFINYAMGWYRQAPGKERELVAAITTNGGSTYYADSVKGRFTISRDNAKYTVYLQMNSLKPEDTAVYYCAARRRYKMDYWGQGTQVTVSS | high polyreactivity |
| QVQLVESGGGLVQAGGSLRLSCAASGRIFIRNDMGWYRQAPGKERELVAVITRSGGRTYYADSVKGRFTISRDNAKNTVYLQMNSLKPEDTAVYYCAKRQAFKQAPYEYWGQGTQVTVSS | low polyreactivity |
| QVQLVESGGGLVQAGGSLRLSCAASGRIFISNAMGWYRQAPGKERELVAAITWIGDRTYYADSVKGRFTISRDNAKNTVYLQMNSLKPEDTAVYYCNRVTSRVSGRYSYDYWGQGTQVTVSS | high polyreactivity |
| QVQLVESGGGLVQAGGSLRLSCAASGRIFISYTMGWYRQAPGKDRELVAGIDSSGTSTYYADSVKGRFTISRDNAKNTVYLQMNSLKPEDTAVYYCNVDGNWKDTSTELDYWGQGTQVTVSS | low polyreactivity |
| QVQLVESGGGLVQAGGSLRLSCAASGRIFIVNAMGWYRQAPGKERELVAAISYRGGSTYYADSVKGRFTISRDNAKNTVYLQMNSLKPEDTAVYYCNKDSTGDGYDYWGQGTQVTVSS | low polyreactivity |
| QVQLVESGGGLVQAGGSLRLSCAASGRIFIYNAMGWSRQAPGKEREFVAAISSSGGSTYYADSVKGRFTISRDNAKNTVYLQMNSLKPEDTAVYYCAAGGWPYSGGWFFQPNYDYWGQGTQVTVSS | low polyreactivity |
| QVQLVESGGGLVQAGGSLRLSCAASGRIFKDYAMGWYRQAPGKEREFVARISSRGGRTYYADSVKGRFTISRDNAKNTVYLQMNSLKPEDTAVYYCAVTTSPYRPTKFDYWGQGTQVTVSS | high polyreactivity |
| QVQLVESGGGLVQAGGSLRLSCAASGRIFKGYAMGWYRQAPGKERELVASISKRGVSTYYADSVKGRFTISRDNAKNTVYLQMNSLKPEDTAVYYCNARAPGYYYTRYDYWGQGTQVTVSS | high polyreactivity |
| QVQLVESGGGLVQAGGSLRLSCAASGRIFKINAMGWYRQAPGKERELVAAITRSGGTTYYADSVKGRFTISRDNAKNTVYLQMNSLKPEDTAVDYCARAYSLRVVTGDYWGQGTQVTVSS | high polyreactivity |
| QVQLVESGGGLVQAGGSLRLSCAASGRIFKIYAMGWYRQAPGKEREFVATISSGGRTNYADSVKGRFTISRDNAKNTVYLQMNSLKPEDTAVYYCNAGARVLYETESFDYWGQGIQVTVSS | low polyreactivity |

| Sequence | polyreactivity (PSR sort gate) |
| --- | --- |
| QVQLVESGGGLVQAGGSLRLSCAASGRIFKIYAMGWYRQAPGKERELVAAISGRGGSTYYADSVKGRFTISRDNAKNTVYLQMNSLKPEDTAVYYCAAVGYGFSAYSTYDYWGQGTQVTVSS | high polyreactivity |
| QVQLVESGGGLVQAGGSLRLSCAASGRIFKKNAMGWYRQAPGKERELVAAIRGSGDSTFYADSVKGRFTISRDNAKNTVYLQMNSLKPEDTAVYYCAAGDVPRRIYLVYVGYLLDYWGQGTQVTVSS | low polyreactivity |
| QVQLVESGGGLVQAGGSLRLSCAASGRIFKKNAMGWYRQAPGKERELVAAISARGGSTYYADSVKGRFTISRDNAKNTVYLQMNSLKPEDTAVYYCAADEVDESIHYYTFDYWGQGTQVTVSS | high polyreactivity |
| QVQLVESGGGLVQAGGSLRLSCAASGRIFKKNAMGWYRQAPGKERELVASITRGASTNYADSVKGRFTISRDNAKNTVYLQMNSLKPEDTAVYYCAAVITLNGDGPPSDYWGQGTQVTVSS | low polyreactivity |
| QVQLVESGGGLVQAGGSLRLSCAASGRIFKKYAMGWYRQAPGKERELVATISSGGSTYYADSVKGRFTISRDNSKNTVYLQMNSLKPEDTAVYYCARREYVRRDYFVTTYDYWGQGTQVTVSS | low polyreactivity |
| QVQLVESGGGLVQAGGSLRLSCAASGRIFKLNAMGWYRQAPGKERELVAAITRGGRTYYADSVKGRFTISRDNAKNTVYLQMNSLKPEDTAVYYCNKKTYQQTYKYDYWGQGTQVTVSS | high polyreactivity |
| QVQLVESGGGLVQAGGSLRLSCAASGRIFKLYAMGWYRQEPGKVRELVASITWGGGSTNYADSVKGRFTISRDNAKNTVYLQMNSLKQEDTAVYYCAAVYSKFAVFWEYDYWGQGTQVTVSS | low polyreactivity |
| QVQLVESGGGLVQAGGSLRLSCAASGRIFKNYAMGWYRQAPGKERELVAAISWSGGRTYYADSVKGRFTISRDNAKNTVYLQMNSLKPEDTAVYYCAASIRTGYRYGYWGQGTQVTVSS | high polyreactivity |
| QVQLVESGGGLVQAGGSLRLSCAASGRIFKQYTMGWYRQAPGKERELVAAITSSGAGTFYADSVKGRFTISRDNAKNTVYLQMNSLKPEDTAVYYCAASWSRRDRGFDYWGQGTQVTVSS | high polyreactivity |
| QVQLVESGGGLVQAGGSLRLSCAASGRIFKRNAMGWYRQAPGKERELVAAINWSGGSTYYADSVKGRFTISRDNAKNTVYLQMNSLKPEDTAVYYCAALRVQGDYDYWGQGTQVTVSS | high polyreactivity |
| QVQLVESGGGLVQAGGSLRLSCAASGRIFKRYAMGWYRQAPGKERELVAAITRSGGSMYYADSVKGRFTISRDNAKNTVYLQMNSLKPEDTAVYYCNKVYGPHPERAVYYEGDYWGQGTQVTVSS | high polyreactivity |
| QVQLVESGGGLVQAGGSLRLSCAASGRIFKRYDMGWYRQAPGKERELVAAITGTGGSTYYADSVKGRFTISRDNAKNTVYLQMNSLKPEDTAVYYCAARLYNTYSGFAFGYWGQGTQVTVSS | high polyreactivity |
| QVQLVESGGGLVQAGGSLRLSCAASGRIFKRYDMGWYRQAPWKERELVAAITGTGGSTYYADSVKGRFTISRDNAKNTVYLQMNSLKPEDTAVYYCAARLYNTYSGFAFGYWGQGTQVTVSS | high polyreactivity |
| QVQLVESGGGLVQAGGSLRLSCAASGRIFKSYAMGWYRQAPGKERELVASISYTGGSTYYADSVKGRFTISRDNAKNTVYLQMNSLKPEDTAVYYCAAKRVRSAGSYGYWGQGTQVTVSS | low polyreactivity |
| QVQLVESGGGLVQAGGSLRLSCAASGRIFKVYAMGWYRQAPGKERELVASIRWNTGSTYYADSVKGRFTISRDNAKNTVYLQMNSLKPEDTAVYYCNARGYYQGRYGYWGQGTQVTVSS | high polyreactivity |
| QVQLVESGGGLVQAGGSLRLSCAASGRIFKVYAMGWYRQAPGKERELVAVINGGGSTNYADSVKGRFTISRDNAKNTVYLQMNSLKPEDTAVYYCATEGYGHGGETDGGVYSDLGYWGQGTQVTVSS | low polyreactivity |
| QVQLVESGGGLVQAGGSLRLSCAASGRIFKWYAMGWYRQAPGKERELVAVITVSGGSTTYADSVKGRFTISLDNAKNTVYLQMNSLKQEDTAVYYCNAVYYRSRFGTSIRYDYWGQGTQVTVSS | high polyreactivity |
| QVQLVESGGGLVQAGGSLRLSCAASGRIFKYYAMGWYRQAPGKERELVAAITRGGSTNYADSVKGRFTISRDNASNTVYLQMTSLKPEDTAVYYCAVVTVRNHRMDYWGQGTQVTVSS | low polyreactivity |
| QVQLVESGGGLVQAGGSLRLSCAASGRIFKYYAMGWYRQAPGKERELVAAITSGGSTYYADSVKGRFTISRDNAKNTVYLQMNSLKPEDTAVYYCNADGYLSYAFDYWGQGTQVTVSS | low polyreactivity |
| QVQLVESGGGLVQAGGSLRLSCAASGRIFKYYAMGWYRQAPGKERELVARISSSGGSTYYADSVKGRFTISRDNAKNTVYLQMNSLKPEDTAVYYCNARYYSTKYFLGDYWGQGTQVTVSS | high polyreactivity |

Reference: the nanobody polyreactivity screen of Harvey et al. (2022)
